Data as given in US9289490B2, “Combinations and uses thereof” (MORPHOSYS AG, priority 2010, dated 2016).
Where “and” joins values, the source holds several entries; their conditions need not be identical. Equal entries are not always repeated. Where two headings read alike, the source gives them in different places. Marks after values point to notes of the source that are not given here.

Assays:
[1] = test system: NCI-H929 cells; assay: ADCC with human PBMCs, flow cytometry (CalceinAM/PI); conditions: for % dead cells (raw data, Table 7a), Exp. 2 and 3 / % dead cells (raw data, Table 7a), Exp. 1: PBMCs and NCI-H929 cells treated with LEN before MOR202; for % dead cells (raw data, Table 7a), Exp. 2 and 3 / % dead cells (raw data, Table 7a), Exp. 1 / % dead cells (raw data, Table 8a), Exp. 2 and 3 / % dead cells (raw data, Table 8a), Exp. 1: MOR03207 15 μg/ml; for % dead cells (raw data, Table 8a), Exp. 2 and 3 / % dead cells (raw data, Table 8a), Exp. 1: only effector cells treated with LEN before MOR202
[2] = test system: AMO-1 cells; assay: as above; format: cell-based
Protocol: For Tables 3b-c, “Theoretical Combination” represents the addition of the values of MOR202 alone and the values of LEN alone. The normalized data of Table 3b is calculated as follows. Therefore, the specific killing values of Table 3b are calculated by subtracting the values of the controls. Then the specific killing values are compared to the MOR202 group, which is set as 1.
The constant m determines the shape of the dose-effect curve. We used Excel Fit software to carry out a linear regression calculation to estimate the parameters m and D50.
The CI-isobol method provides a quantitative assessment of synergism between drugs. A combination index (CI) is estimated from dose-effect data of single and combined drug treatments. […] Formally, the combination index (CI) of a combined drug treatment is defined as CI=D1/Dx1+D2/Dx2
The data is analysed in the following way: Antagonistic(AB)/C<(A/C)×(B/C) Additive(AB)/C=(A/C)×(B/C) Synergistic(AB)/C>(A/C)×(B/C) where A is the treatment with LEN alone; B is the treatment with MOR202 alone; C is response to the treatment vehicle; AB is combination of treatments A and B.

[3] = test system: RAMOS cells; conditions: BOR 0.6 mg/kg i.p., MOR202 1 mg/kg i.v.
Protocol: Fifty-five female SCID mice were pre-treated with Cyclophosphamide (75 mg/kg, i.p., twice daily) for two days prior to RAMOS cell inoculation (Day −5 and −4). On the day of inoculation (Day −3), all fifty-five mice were inoculated with 1×10^6 RAMOS cells each (in 100 μL) intravenously into the tail vein. Forty-eight of the mice were randomised by body weight into six groups of eight.

[4] = test system: RAMOS cells; assay: RAMOS non-Hodgkin tumor SCID mouse survival model, MOR202 and lenalidomide; format: in vivo, SCID mice
Protocol: Sixty-eight female SCID mice were pre-treated with Cyclophosphamide (75 mg/kg, i.p., twice daily) for two days prior to RAMOS cell inoculation (Day −5 and −4). On the day of inoculation (Day −3), all mice were inoculated with 1×10^6 RAMOS cells each intravenously into the tail vein. Sixty-four of the mice were randomised by body weight into eight groups of eight.
The study continued for 98 days and the measured endpoint was survival.

[5] = test system: NCI-H929 human multiple myeloma cells; assay: NCI-H929 bone lysis SCID mouse MM model, MOR202 and LEN (MicroCT); format: in vivo, SCID mice; set-up: Trabecular Bone Volume (Tb · BV), individual mouse / Trabecular Bone Volume (Tb · BV), Mean: unit not given here
Protocol: 63 SCID mice were inoculated on Day (−7) orthotopically into the right tibia with 2.5×10^6 NCI-H929 MM cells (in 5 μL) in order to induce bone lysis. Lenalidomide (Groups A and D) and Vehicle Control (Group C) treatments started on Day (−1). MOR202 treatments (Groups B and D) started on Day 0. Treatment continued for 6 weeks.
MicroCT Scan was used to assess bone lysis and included […] analysis comprising Total Bone Volume (TBV), Trabecular Bone Volume (Tb.BV), Trabecular Pattern Factor (Tb.Pf) and Structure Model Index (SMI). Table 10 defines each of these parameters.

[6] = test system: NCI-H929 MM cells; assay: NCI-H929 bone lysis SCID mouse model, MOR202 and BOR (MicroCT); format: in vivo, SCID mice; set-up: Trabecular Bone Volume (Tb · BV), individual mouse / Trabecular Bone Volume (Tb · BV), Average: unit not given here
Text: 63 SCID mice were inoculated on Day (−7) intra-tibially with 2.5×10^6 NCI-H929 MM cells in order to induce bone lysis. Bortezomib (Groups A and AB) and Vehicle Control (Group C) treatments started on Day (−1). MOR202 treatments (Groups B and AB) started on Day 0. Treatment continued for 6 weeks.
MicroCT Scan was used to assess bone lysis and included a 3-dimensional analysis comprising Total Bone Volume (TBV), Trabecular Bone Volume (Tb.BV), Trabecular Pattern Factor (Tb.Pf) and Structure Model Index (SMI). Table 10 above defines each of these parameters.

[7] = LEN 50 mg/kg p.o. once daily, MOR202 3 mg/kg i.p. 3 times weekly, 6 weeks, lower = less bone lysis, listed as MOR03087
[8] = group mean of 10 mice, LEN 50 mg/kg p.o., MOR202 3 mg/kg i.p., 6 weeks
[9] = Bortezomib 0.6 mg/kg i.p. twice per week, MOR202 3 mg/kg i.p. three times per week, 6 weeks, lower = less bone lysis
[10] = group average of 10 mice, Bortezomib 0.6 mg/kg i.p., MOR202 3 mg/kg i.p., 6 weeks

B1: MOR03207: binds lysosyme, and is used as isotype control, as it is IgG1 (SEQ ID NO: 8, 9) (antibody, V domains shown)
VH: QVQLQQSGPGLVKPSQTLSLTCAISGDSVSSNSAAWSWIRQSPGRGLEWLGRIYYRSKWYNDYAVSVKSRITINPDTSKNQFSLQLNSVTPEDTAVYYCARLDHRYHEDTVYPGMDVWGQGTLVTVSS
VL: DIELTQPPSVSVAPGQTARISCSGDNLPAYTVTWYQQKPGQAPVLVIYDDSDRPSGIPERFSGSNSGNTATLTISGTQAEDEADYYCASWDPSSGVVFGGGTKLTVLGQ
modifications: /mol_type=“protein” /note=“variable heavy chain” /organism=“synthetic construct”; /mol_type=“protein” /note=“variable light chain” /organism=“synthetic construct”
[1]; LEN 5 μM, MOR202 0.07 μg/ml
  % dead cells (raw data, Table 7a), Exp. 2 and 3: 14.09 % dead cells and 19.20 % dead cells
  % dead cells (raw data, Table 8a), Exp. 2 and 3: 27.10 % dead cells and 23.19 % dead cells
[1]; LEN 5 μM, MOR202 0.2 μg/ml (*)
  % dead cells (raw data, Table 7a), Exp. 1: 17.81 % dead cells
  % dead cells (raw data, Table 8a), Exp. 1: 17.07 % dead cells
[1]; control group, PBMCs and NCI-H929 cells LEN-treated series, Exp. 1-3
  % dead cells, MOR03207 (15 μg/ml) + DMSO (Table 7a): 13.74 % dead cells and 18.27 % dead cells and 20.26 % dead cells
[1]; control group, effector-only series, Exp. 1-3
  % dead cells, MOR03207 (15 μg/ml) + DMSO (Table 8a): 24.43 % dead cells and 19.52 % dead cells and 24.16 % dead cells
[2]; control group of the effector-only experiments, Exp. 1-3
  % dead cells, MOR03207 15 μg/ml + DMSO (Table 4a): 15.77 % dead cells and 15.97 % dead cells and 11.45 % dead cells
[2]; only PBMCs (effector cells) treated with LEN before MOR202, LEN 10 μM, MOR202 and MOR03207 15 μg/ml, Exp. 1-3
  % dead cells (raw data, Table 4a): 17.42 % dead cells and 16.17 % dead cells and 12.17 % dead cells

B2: MOR202: anti-CD38 antibody whose amino acid sequence is provided in FIG. 11; IgG1 (antibody, V domains shown)
VH: QVQLVESGGGLVQPGGSLRLSCAASGFTFSSYYMNWVRQAPGKGLEWVSGISGDPSNTYYADSVKGRFTISRDNSKNTLYLQMNSLRAEDTAVYYCARDLPLVYTGFAYWGQGTLVTVSS
VL: DIELTQPPSVSVAPGQTARISCSGDNLRHYYVYWYQQKPGQAPVLVIYGDSKRPSGIPERFSGSNSGNTATLTISGTQAEDEADYYCQTYTGGASLVFGGGTKLTVLGQ
[1]; LEN 5 μM, MOR202 0.07 μg/ml
  % dead cells (raw data, Table 7a), Exp. 2 and 3: 32.54 % dead cells and 43.08 % dead cells
  % dead cells (raw data, Table 8a), Exp. 2 and 3: 53.74 % dead cells and 47.00 % dead cells
[1]; LEN 5 μM, MOR202 0.2 μg/ml (*)
  % dead cells (raw data, Table 7a), Exp. 1: 30.64* % dead cells
  % dead cells (raw data, Table 8a), Exp. 1: 26.60* % dead cells
[1]; PBMCs and NCI-H929 cells treated with LEN, LEN 5 μM, MOR202 0.07 μg/ml
  Normalized specific killing, fractional product combination set as 1 (Table 7b), Exp. 2 and 3: 0.45 and 0.58
[1]; PBMCs and NCI-H929 cells treated with LEN, LEN 5 μM, MOR202 0.2 μg/ml (*)
  Normalized specific killing, fractional product combination set as 1 (Table 7b), Exp. 1: 0.42*
[1]; PBMCs and NCI-H929 cells treated with LEN, LEN 5 μM, MOR202 0.2 or 0.07 μg/ml, average of 3 experiments
  Normalized specific killing, AVERAGE (Table 7b): 0.48
[1]; only effector cells treated with LEN, LEN 5 μM, MOR202 0.07 μg/ml
  Normalized specific killing, fractional product combination set as 1 (Table 8b), Exp. 2 and 3: 0.97 and 0.91
[1]; only effector cells treated with LEN, LEN 5 μM, MOR202 0.2 μg/ml (*)
  Normalized specific killing, fractional product combination set as 1 (Table 8b), Exp. 1: 1.09*
[1]; only effector cells treated with LEN, LEN 5 μM, MOR202 0.2 or 0.07 μg/ml, average of 3 experiments
  Normalized specific killing, AVERAGE (Table 8b): 0.99
[3]
  Number of mice alive at study termination (day 98): 0/8
[3]; study 98 days
  Day of death (post-inoculation) Mean: 43.6 days
  Day of death (post-inoculation) Median: 43.5 days
[3]; vs vehicle control
  % ILS (based on median death day): 112%
[4]; LEN 100 mg/kg (Table 14) p.o., MOR202 1 mg/kg i.v.
  Number of mice alive at study termination (day 98): 0/8
[4]; LEN 100 mg/kg (Table 14) p.o., MOR202 1 mg/kg i.v. twice weekly, study 98 days
  Day of death (post-inoculation) Mean: 49.6 days
[4]; LEN 100 mg/kg (Table 14) p.o., MOR202 1 mg/kg i.v., vs vehicle control
  % ILS (based on median death day): 155%
[4]; LEN 100 mg/kg (Table 14; Table 13: 50 mg/kg) p.o. once daily, MOR202 1 mg/kg i.v. twice weekly, study 98 days
  Day of death (post-inoculation) Median: 51 days
[5]; [7]
  Structure Model Index (SMI), individual mouse: 2.386 and 1.818 and 2.423 and 2.450 and 1.860 and 2.461 and 2.558 and 2.247 and 2.318 and 2.275
  Trabecular Pattern Factor (Tb · Pf), individual mouse: 27.049 mm^−1 and 15.631 mm^−1 and 27.631 mm^−1 and 27.523 mm^−1 and 17.887 mm^−1 and 21.405 mm^−1 and 26.345 mm^−1 and 20.327 mm^−1 and 25.843 mm^−1 and 22.402 mm^−1
[5]; [8]
  Structure Model Index (SMI), Mean: 2.28
  Total Bone Volume (TBV), Mean: 2.467 mm^3
  Trabecular Bone Volume (Tb · BV), Mean: 0.323
  Trabecular Pattern Factor (Tb · Pf), Mean: 23.204 mm^−1
[5]; group mean of 10 mice, LEN 50 mg/kg p.o., MOR202 3 mg/kg i.p., 6 weeks, listed as MOR03087
  Structure Model Index (SMI), Mean: 2.280
[5]; non-inoculated tibia = 0%, vehicle = 100% bone lysis, MOR202 alone 12 mg/kg, LEN alone 50 mg/kg, combination 3 mg/kg MOR202 and 50 mg/kg LEN
  Reduction of bone lysis compared to vehicle control: up to 55%
[2]; PBMCs and AMO-1 cells treated with LEN, LEN 10 μM, MOR202 and MOR03207 15 μg/ml, controls subtracted, Exp. 1-3
  Normalized specific killing, MOR202 treatment group set as 1 (Table 3b): 1.0
[2]; PBMCs and AMO-1 cells treated with LEN, MOR202 0.42 μg/ml, LEN 5 μM, Experiment 1-3
  Normalized specific killing, theoretical combination set as 1 (Table 3c): 0.9 and 0.6
[2]; PBMCs and AMO-1 cells treated with LEN, MOR202 0.42 μg/ml, LEN 5 μM, average of 3 experiments
  Normalized specific killing, theoretical combination set as 1, AVERAGE (Table 3c): 0.8
[2]; only effector cells treated with LEN, LEN 10 μM, MOR202 and MOR03207 15 μg/ml, Exp. 1-3
  Normalized specific killing, MOR202 treatment group set as 1 (Table 4b): 1.0
[2]; only effector cells treated with LEN, MOR202 0.42 μg/ml, LEN 5 μM, Experiment 1-3
  Normalized specific killing, theoretical combination set as 1 (Table 4c): 0.8 and 1.2 and 0.7
[2]; only effector cells treated with LEN, MOR202 0.42 μg/ml, LEN 5 μM, average of 3 experiments
  Normalized specific killing, theoretical combination set as 1, AVERAGE (Table 4c): 0.9
[6]; [9]
  Structure Model Index (SMI), individual mouse: 2.546 and 2.079 and 2.296 and 2.429 and 1.871 and 2.193 and 2.368 (2×) and 2.436 and 2.511
  Trabecular Pattern Factor (Tb · Pf), individual mouse: 27.363 mm^−1 and 19.479 mm^−1 and 21.858 mm^−1 and 23.814 mm^−1 and 16.347 mm^−1 and 19.748 mm^−1 and 25.212 mm^−1 and 21.276 mm^−1 and 24.031 mm^−1 and 25.056 mm^−1
[6]; [10]
  Structure Model Index (SMI), Average: 2.31
  Total Bone Volume (TBV), Average: 1.988 mm^3
  Trabecular Bone Volume (Tb · BV), Average: 0.296
  Trabecular Pattern Factor (Tb · Pf), Average: 22.418 mm^−1
[6]; non-inoculated tibia = 0%, vehicle = 100% bone lysis, MOR202 alone 12 mg/kg, BOR alone 0.6 mg/kg, combination 3 mg/kg MOR202 and 0.6 mg/kg BOR
  Reduction of bone lysis compared to vehicle control: up to 55%
